According to article PMC4589357, “The Role of Electrostatic Interactions in Binding of Histone H3K4me2/3 to the Sgf29 Tandem Tudor Domain” (PLoS ONE, 2015):
No end group written: not given here. Me3 = trimethyl (on lysine, trimethyllysine)

Key:
Experiment in all cases: ITC; peptide (generally 1.2 mM) titrated to protein (100 uM); for variants of low affinity 2.4 mM peptide to 200 uM protein; 25 mM TRIS pH 8.0, 50 mM NaCl, 1 mM DTT; one-site model
Conditions in all cases: both partners purified
[1] = target: T1, Sgf29 D266E variant, residues 115-293 (human, UniProt Q96ES7 115-293, D266E)
T1 construct: source: E. coli Rosetta BL21 DE3 PlysS, purified (Ni-NTA, TEV cleavage, SEC Superdex 75)
T1 sequence (looked up): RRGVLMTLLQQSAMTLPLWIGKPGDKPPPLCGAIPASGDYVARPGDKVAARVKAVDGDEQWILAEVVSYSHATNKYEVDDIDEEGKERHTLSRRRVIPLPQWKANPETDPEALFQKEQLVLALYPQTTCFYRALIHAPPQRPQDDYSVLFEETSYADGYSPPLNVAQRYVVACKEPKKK

[2] = target: T2, Sgf29 D266N variant, residues 115-293 (human, UniProt Q96ES7 115-293, D266N)
T2 construct: source: E. coli Rosetta BL21 DE3 PlysS, purified (Ni-NTA, TEV cleavage, SEC Superdex 75)
T2 sequence (looked up): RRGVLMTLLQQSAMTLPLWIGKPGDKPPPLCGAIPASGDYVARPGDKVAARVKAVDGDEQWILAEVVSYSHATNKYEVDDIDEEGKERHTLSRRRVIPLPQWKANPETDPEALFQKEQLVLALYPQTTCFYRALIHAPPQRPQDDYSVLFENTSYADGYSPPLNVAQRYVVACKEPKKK

[3] = target: T3, Sgf29 D266A variant, residues 115-293 (human, UniProt Q96ES7 115-293, D266A)
T3 construct: source: E. coli Rosetta BL21 DE3 PlysS, purified (Ni-NTA, TEV cleavage, SEC Superdex 75)
T3 sequence (looked up): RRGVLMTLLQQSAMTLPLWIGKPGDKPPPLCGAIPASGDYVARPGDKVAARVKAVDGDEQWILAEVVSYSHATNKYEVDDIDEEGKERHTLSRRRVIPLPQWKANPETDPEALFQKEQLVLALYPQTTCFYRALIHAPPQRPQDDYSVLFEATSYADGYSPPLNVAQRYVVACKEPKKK

[4] = target: T4, Sgf29 Y245F variant, residues 115-293 (human, UniProt Q96ES7 115-293, Y245F)
T4 construct: source: E. coli Rosetta BL21 DE3 PlysS, purified (Ni-NTA, TEV cleavage, SEC Superdex 75)
T4 sequence (looked up): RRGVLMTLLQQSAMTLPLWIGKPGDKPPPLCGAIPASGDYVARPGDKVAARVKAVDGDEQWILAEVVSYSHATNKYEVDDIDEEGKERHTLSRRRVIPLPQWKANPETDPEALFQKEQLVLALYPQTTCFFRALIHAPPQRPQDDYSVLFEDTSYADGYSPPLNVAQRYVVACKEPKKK

[5] = target: T5, Sgf29 D266Y variant, residues 115-293 (human, UniProt Q96ES7 115-293, D266Y)
T5 construct: source: E. coli Rosetta BL21 DE3 PlysS, purified (Ni-NTA, TEV cleavage, SEC Superdex 75)
T5 sequence (looked up): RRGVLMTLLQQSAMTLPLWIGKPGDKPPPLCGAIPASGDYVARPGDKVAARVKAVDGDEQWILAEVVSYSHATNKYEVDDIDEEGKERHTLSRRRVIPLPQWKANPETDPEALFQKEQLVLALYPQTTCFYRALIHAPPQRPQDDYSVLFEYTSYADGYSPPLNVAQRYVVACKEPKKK

[6] = target: T6, Sgf29 Y238F variant, residues 115-293 (human, UniProt Q96ES7 115-293, Y238F)
T6 construct: source: E. coli Rosetta BL21 DE3 PlysS, purified (Ni-NTA, TEV cleavage, SEC Superdex 75)
T6 sequence (looked up): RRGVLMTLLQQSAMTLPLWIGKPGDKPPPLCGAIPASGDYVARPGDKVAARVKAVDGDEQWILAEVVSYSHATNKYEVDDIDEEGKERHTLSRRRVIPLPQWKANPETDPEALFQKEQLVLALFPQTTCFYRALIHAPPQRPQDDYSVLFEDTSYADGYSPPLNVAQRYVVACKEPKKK

[7] = target: T7, Wild-type Sgf29 (SAGA-associated Factor 29) tandem tudor domain, residues 115-293 (human, UniProt Q96ES7 115-293)
T7 construct: also called WT Sgf29; WT; source: E. coli Rosetta BL21 DE3 PlysS, purified (Ni-NTA, TEV cleavage, SEC Superdex 75)
T7 sequence (looked up): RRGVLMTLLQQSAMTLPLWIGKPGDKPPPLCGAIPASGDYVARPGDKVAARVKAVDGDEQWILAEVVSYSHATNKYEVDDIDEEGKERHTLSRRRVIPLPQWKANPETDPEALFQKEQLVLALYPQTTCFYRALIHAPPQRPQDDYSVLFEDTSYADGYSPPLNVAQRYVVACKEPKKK

[8] = target: T8, Sgf29 D266F variant, residues 115-293 (human, UniProt Q96ES7 115-293, D266F)
T8 construct: source: E. coli Rosetta BL21 DE3 PlysS, purified (Ni-NTA, TEV cleavage, SEC Superdex 75)
T8 sequence (looked up): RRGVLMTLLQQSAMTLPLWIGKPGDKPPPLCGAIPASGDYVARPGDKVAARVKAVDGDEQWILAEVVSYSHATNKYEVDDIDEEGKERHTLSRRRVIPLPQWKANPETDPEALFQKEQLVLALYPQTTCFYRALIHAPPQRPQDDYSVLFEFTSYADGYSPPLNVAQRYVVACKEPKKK

[9] = target: T9, Sgf29 D266W variant, residues 115-293 (human, UniProt Q96ES7 115-293, D266W)
T9 construct: source: E. coli Rosetta BL21 DE3 PlysS, purified (Ni-NTA, TEV cleavage, SEC Superdex 75)
T9 sequence (looked up): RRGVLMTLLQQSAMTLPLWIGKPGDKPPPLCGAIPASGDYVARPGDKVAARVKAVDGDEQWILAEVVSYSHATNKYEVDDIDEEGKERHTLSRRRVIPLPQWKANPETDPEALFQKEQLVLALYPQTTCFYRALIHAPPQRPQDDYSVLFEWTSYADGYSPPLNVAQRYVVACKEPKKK

B1: 10-mer histone 3 peptide H3K4me3 (ARTKme3QTARKS) (peptide)
peptide: ARTK(Me3)QTARKS-OH
notes: histone H3 N-terminal tail, 10-mer, K4 trimethylated; also called native 10-mer peptide; source: synthetic peptide (manual Fmoc solid-phase synthesis, preparative HPLC)
[1]
  Kd: 3.9 µM
  dH: -9 kcal/mol
[2]
  Kd: 25 µM
  dH: -6.2 kcal/mol
[3]
  Kd: 25 µM
  dH: -6.4 kcal/mol
[4]
  Kd: 14 µM
  dH: -5.9 kcal/mol
[5]
  Kd: 28 µM
  dH: -4.8 kcal/mol
[6]
  Kd: 3.5 µM
  dH: -8.1 kcal/mol
[7]
  Kd: 3.1 µM
  dH: -8.1 kcal/mol
[8]
  Kd: 44 µM
  dH: -3.4 kcal/mol
[9]
  Kd: > 200 µM
